The source of these data is US20200316233A1 (BOARD OF REGENTS OF THE UNIVERISTY OF NEBRASKA, published 2020).

Square brackets hold non-standard residues; d marks the D form. Ends that are not written are not given here.

The target in test [1] is T1, neurotensin receptor-1 (human, UniProt P30989 1-418).
T1 construct: whole, on cells; Endogenous receptor on the NTSR1-positive HT-29 human colon cancer cell line; also called NTR1; NTSR1
As to the kind of experiment: competition with 177Lu-N1 on HT-29 cells. Here is the method:
(§1) The IC₅₀ for the unlabeled conjugates binding to the neurotensin receptors was determined using the HT-29 human colon cancer cell line. In these studies, ¹⁷⁷Lu-N1 (¹⁷⁷Lu-DOTA-β-Ala-[N-α-Me⁸, Dmt¹¹, Tle¹²]NT(6-13)), which was synthesized according to published methods (Jia, et al. (2015) Nucl. Med. Biol., 42:816), served as the competitive radioligand for comparing the relative binding affinities of the conjugates. […] At the end of the incubation, the cells were centrifuged, aspirated, and washed with fresh medium (5×500 μL). The cell-associated radioactivity was measured using gamma counter and the IC₅₀ values determined by nonlinear regression using GraphPad Prism 5. All measurements were in biological triplicate.

For test [2], the target named is T1, neurotensin receptor-1. As to the kind of experiment: competitive binding to NTR1. On the procedure: as §1

T1 sequence (P30989 whole entry): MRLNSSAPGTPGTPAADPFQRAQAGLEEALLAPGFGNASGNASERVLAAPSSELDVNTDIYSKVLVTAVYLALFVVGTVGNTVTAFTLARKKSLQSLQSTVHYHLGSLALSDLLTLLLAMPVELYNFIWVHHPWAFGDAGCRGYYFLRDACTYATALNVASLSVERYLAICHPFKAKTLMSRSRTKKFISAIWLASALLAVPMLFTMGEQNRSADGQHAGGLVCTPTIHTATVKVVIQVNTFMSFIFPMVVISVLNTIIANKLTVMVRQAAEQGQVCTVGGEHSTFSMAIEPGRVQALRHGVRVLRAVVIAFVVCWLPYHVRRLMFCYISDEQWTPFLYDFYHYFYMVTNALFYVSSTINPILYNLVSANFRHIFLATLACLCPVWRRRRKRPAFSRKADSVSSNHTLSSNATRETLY

B1: 3a (peptide)
peptide: KPRRPYIL
modifications: not fully specified; also: N-terminal DOTA, X linker PEG3, Y linker β-Ala, N-Me-Arg, Dmt, Tle building blocks, places not given here
notes: matched control of 2c; also called compound 3a
As a reminder, the IC50 is the midpoint of a concentration-inhibition curve. In turn, B1 gave an IC50 with neurotensin receptor-1 [1] of 49 nM.

B2: 3b (peptide)
peptide: [dS][dS][dS]KPRRPYIL
modifications: not fully specified; also: N-terminal DOTA, X linker Gly-(D)Ser3, N-Me-Arg, Dmt, Tle building blocks, places not given here
notes: matched control of 2f; also called compound 3b
B2 had an IC50 in the test with neurotensin receptor-1 [1] of 52 nM.

B3: Ec (peptide)
peptide: KPRRPYIL
modifications: not fully specified; also: DOTA on the peptide, linkers and non-natural residues not given here
In the test with neurotensin receptor-1 [2], B3 came in with an IC50 of 63 nM. That is a double-digit nanomolar value.
